Laboratory results as given in IntAct's records for PubMed 16284401.

B1: Kinase D-interacting substrate of 220 kDa (Rattus norvegicus (Rat)), Q9EQG6 (parent)
chain: MSVLISQSVINYVEEENIPALKALLEKCKDVDERNECGQTPLMLAAEQGNVEIVKELLKNGANCNLEDLDNWTALISASKEGHIHIVEELLKSGASLEHRDMGGWTALMWACYKGRTDVVELLLSHGANPSVTGLYSVYPIIWAAGRGHADIVHLLLQNGAKVNCSDKYGTTPLVWAARKGHLECVKHLLAMGADVDQEGANSMTALIVAVKGGYTQSVKEILKRNPNVNLTDKDGNTALMIASKEGHIEIVQDLLDAGTYVNIPDRSGDTVLIGAVRGGHVEIVRALLQKYADIDIRGQDNKTALYWAVEKGNATMVRDILQCNPDTEICTKDGETPLIKATKMRNIEVVELLLDKGAKVSAVDKKGDTPLHVAIRGRSRRLAELLLRNPKDGRLLYRPNKAGETPYNIDCSHQKSILTQIFGARHLSPTETDGDMLGYDLYSSALADILSEPTMQPPICVGLYAQWGSGKSFLLKKLEDEMKTFAGQQTEPLFQFSWLIVFLTLLLCGGLGLVFAFTVDTNLAIAISLSFLALIYIFFIVIYFGGRREGESWNWAWALSTRLARHIGYLELLFKLMFVNPPELPEQTTKALPVRFLFTDYNRLSSVGGETSLAEMIATLSDACEREFGFLATRLFRVFRTEESQGKKKWKKTCCLPSFVIFLFIVGCIIAGITLLAIFRVDPKHLTVNAILISIASVVGLAFVLNCRTWWQVLDSLLNSQRKRLHSAASKLHKLKSEGFMKVLKCEVELMARMAKTIDSFTQNQTRLVVIIDGLDACEQDKVLQMLDTVRVLFSKGPFIAIFASDPHIIIKAINQNLNSVLRDSNINGHDYMRNIVHLPVFLNSRGLSNARKFLVTSATNGDITCSDTTGTQEDTDRRVSQNSLGEMTKLGSKTALNRRDTYRRRQMQRTITRQMSFDLTKLLVTEDWFSDISPQTMRRLLNIVSVTGRLLRANQITFNWDRLASWINLTEQWPYRTSWLILYLEETEGLPDQMTLKTIYERISKNIPTTKDVEPLLEIDGDIRNFEVFLSSRTPVLVARDVKTFLPCTVNLDPKLREIIADVRAAREQINIGGLAYPPLPLHEGPPRPPSGYSQPASVCSSASFNGPFPGGVVSPQPHSSYYSGLSGPQHPFYNRPFFAPYLYTPRYYPGGSQHLISRSSVKTSLPRDQNNGLPCDSGFNKQRQAAVPATGSSLLLSSMTVDVVCEKLRQIEGLDQSMMPQYCTTIKKANINGRVLSQCNIDELKKEMAMNFGDWHLFRSMVLEMRSVESQVVPEDPRFLNENSSAPVPHGESARRSSHTELPLTELSSQTPYTLNFSFEELNTLGLDEGAPRHSNLSWQSQTRRTPSLSSLNSQDSSIEISKLTDKVQAEYRDAYREYIAQMSQLEGGTGSSTISGRSSPHSTYYIGQSSSGGSIHSTLEQERGKEGELKQEDGRKSFLMKRGDVIDYSSSGVSTNEASPLDPITEEDEKSDQSGSKLLPGKKSSERPSLFQTDLKLKGGGLRYQKLPSDEDESGTEESDNTPLLKDDKDKKAEGKAERVCKSPEHSAEPIRTFIKAKEYLSDALLDKKDSSDSGVRSNESSPNHSLHNEAADDSQLEKANLIELEDEGHSGKRGMPHSLSGLQDPIIARMSICSEDKKSPSECSLIASSPEESWPACQKAYNLNRTPSTVTLNNNTAPTNRANQNFDEIEGIRETSQVILRPGPSPNPTAVQNENLKSMAHKRSQRSSYTRLSKDASELHAASSESTGFGEERESIL
B2: Crk-like protein (Rattus norvegicus (Rat)), Q5U2U2 (parent)
chain: MSSARFDSSDRSAWYMGPVSRQEAQTRLQGQRHGMFLVRDSSTCPGDYVLSVSENSRVSHYIINSLPNRRFKIGDQEFDHLPALLEFYKIHYLDTTTLIEPAPRYPNPPMGSVSAPNLSTAEENLEYVRTLYDFPGNDAEDLPFKKGELLVIIEKPEEQWWSARNKDGRVGMIPVPYVEKLVRSSPHGKHGNRNSNSYGIPEPAHAYAQPQTTTPLPTVASTPGAAINPLPSTQNGPVFAKAIQKRVPCAYDKTALALEVGDIVKVTRMNINGQWEGEVNGRKGLFPFTHVKIFDPQNPDDNE

Variants of: B1
Conditions: with crkl_human CRKL

Variant	effect of a mutation on the interaction
Y1095F	decreasing interaction

Variants of: B1
Conditions: with crkl_rat Crkl, Q5U2U2

Variant	effect of a mutation on the interaction
Y1095F	decreasing interaction

Variants of: B2
Conditions: with kdis_rat Kidins220, Q9EQG6

Variant	effect of a mutation on the interaction
R39N	decreasing interaction
